From article PMC4333827

How the values were obtained:
[1] = target: C-terminal helical domain-deleted (ΔH-domain) form of CoMsrA (residues 1-144) (Clostridium oremlandii) (UniProt A8MI53); assay: SEC; gel filtration on Superdex S75 16/60 at the final purification step; 10 mM Tris-HCl pH 8.0, 100 mM NaCl
[2] = target: C-terminal helical domain-deleted (ΔH-domain) form of CoMsrA (residues 1-144) (Clostridium oremlandii) (UniProt A8MI53); assay: as above; remark: listed apart in the source
[3] = target: C-terminal helical domain-deleted (ΔH-domain) form of CoMsrA (residues 1-144) (Clostridium oremlandii) (UniProt A8MI53); assay: SEC-MALS; SEC-MALLS; WTC-015S5 column, 20 mM Tris-HCl pH 8.0, 100 mM NaCl, 298 K, 0.5 ml/min; 2.5 mg/ml full-length, 1.5 mg/ml ΔH-domain
[4] = target: C-terminal helical domain-deleted (ΔH-domain) form of CoMsrA (residues 1-144) (Clostridium oremlandii) (UniProt A8MI53); assay: native gel or EMSA; native-PAGE; 0.2 mg/ml protein in 10 mM Tris-HCl pH 8.0, 100 mM NaCl; without and with 10 mM DTT

A stoichiometry N [1] of 2, a stoichiometry N [2] of 4 and a stoichiometry N [3] of 2 were found for “C-terminal helical domain-deleted (ΔH-domain) form of CoMsrA (residues 1-144) (from UniProt A8MI53 1-144) (domain or fragment)” in this work. For the same substance, the stoichiometry N [4] was 2.
